The results in this text go back to article PMC11320721 (Nature structural & molecular biology, 2024).

No end group written: not given here. Me3 = trimethyl (lysine)

Experiment [1] concerns the target T1, PZP domain of JADE1 (JADE1PZP), wild type (human, UniProt Q6IE81 201-373). The experiment is described as follows: NMR titration.
The target of experiment [2] is E215K mutant of JADE1PZP (human, UniProt Q6IE81 201-373, E215K). The experiment is described as follows: other fluorescence titration.
Experiment [3] deals with T1, PZP domain of JADE1 (JADE1PZP), wild …. The experiment is described as follows: other fluorescence titration.

In general, Kd refers to the free concentration of one partner at which half of the binding sites on the other are occupied at equilibrium, for simple one-to-one binding.

T1 sequence (Q6IE81 201-373): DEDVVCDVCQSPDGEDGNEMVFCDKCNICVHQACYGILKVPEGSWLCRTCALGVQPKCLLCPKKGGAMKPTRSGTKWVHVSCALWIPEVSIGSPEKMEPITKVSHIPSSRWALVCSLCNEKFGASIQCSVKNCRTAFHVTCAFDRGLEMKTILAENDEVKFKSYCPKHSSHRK
E215K mutant of JADE1PZP, sequence (Q6IE81 201-373 E215K): as the sequence (Q6IE81 201-373) above, with E15K counted along it

In turn, ARTK(Me3)QTARKSTG (peptide, UniProt P68431 2-13, looked up) [H3K4me3_(1–12) peptide] displayed a Kd in experiment [1] of 3000 µM. In the case of ARTKQTARKSTG (peptide, UniProt P68431 2-13, looked up) [H3_(1–12) peptide (residues 1–12 of H3)], the “fold decrease in binding affinity against wild type JADE1PZP” value in experiment [2] amounted to 3 fold. This molecule also yielded a Kd in experiment [3] of 0.9 µM.
